Experimental data taken from the DeepSol protein solubility set.

Assay: soluble on expression in E. coli; label from the status in PepcDB or PDB records

Row | Sequence | soluble on expression in E. coli
1 | MKGKSILSEGKQIQLATELVRLGARLQVLEASTTLSRERLVKLYKEVKGASPPKGMLPYSEDWFTGWQPNMHSSLFINIYNYITRYTKVRDIDAIIKSYQLYLEHIEANRLQRILSFTRAWTLVRFVESKVLSVTSCVKCTGNFLVHSLDIQSNHVCGLCHVPSRAGKTKRVAQEARAAQEAGAGELCVI | not soluble
2 | MAKQKDNYLDYVPKHNSLFECRENKKGHVEVKVHNKGIFNRIAQLIARKPRYSYIELDDFGTFVWHSIDGVRSIYDIGQLVKEHFGDKAEPLYERLCYFIKLLHKNQFIVYMNKINKQINK | not soluble
3 | VLSRIQFVSRFGSNLVHIEGVKGSGKSWLAQRYLEKWCDDADQVLLMCHPNQSIQQQRGIILKQVVRDPLFNESDSVVDSVGRMLAGEKCNLVLAIDDAHLLSSELLSELWLLVQKAQSAPNWQINILLFAEKGKLTQTLSQMSYGQDNKPVDIDINP | not soluble
4 | MAPVLSKDVADIESILALNPRTQSHAALHSTLAKKLDKKHWKRNPDKNCFHCEKLENNFDDIKHTTLGERGALREAMRCLKCADAPCQKSCPTHLDIKSFITSISNKNYYGAAKMIFSDNPLGLTCGMVCPTSDLCVGGCNLYATEEGSINIGGLQQFASEVFKAMNIPQIRNPCLPSQEKMPEAYSAKIALLGAGPASISCASFLARLGYSDITIFEKQEYVGGLSTSEIPQFRLPYDVVNFEIELMKDLGVKIICGKSLSENEITLNTLKEEGYKAAFIGIGLPEPKTDDIFQGLTQDQGFYTSKDFLPLVAKSSKAGMCACHSPLPSIRGAVIVLGAGDTAFDCATSALRCGARRVFLVFRKGFVNIRAVPEEVELAKEEKCEFLPFLSPRKVIVKGGRIVAVQFVRTEQDETGKWNEDEDQIVHLKADVVISAFGSVLRDPKVKEALSPIKFNRWDLPEVDPETMQTSEPWVFAGGDIVGMANTTVESVNDGKQASWYIHKYIQAQYGASVSAKPELPLFYTPVDLVDISVEMAGLKFINPFGLASAAPTTSSSMIRRAFEAGWGFALTKTFSLDKDIVTNVSPRIVRGTTSGPMYGPGQSSFLNIELISEKTAAYWCQSVTELKADFPDNIVIASIMCSYNKNDWMELSRKAEASGADALELNLSAPHGMGERGMGLACGQDPELVRNICRWVRQAVQIPFFAKLTPNVTDIVSIARAAKEGGADGVTATNTVSGLMGLKADGTPWPAVGAGKRTTYGGVSGTAIRPIALRAVTTIARALPGFPILATGGIDSAESGLQFLHSGASVLQVCSAVQNQDFTVIQDYCTGLKALLYLKSIEELQGWDGQSPGTESHQKGKPVPRIAELMGKKLPNFGPYLEQRKKIIAEEKMRLKEQNAAFPPLERKPFIPKKPIPAIKDVIGKALQYLGTFGELSNIEQVVAVIDEEMCINCGKCYMTCNDSGYQAIQFDPETHLPTVTDTCTGCTLCLSVCPIIDCIRMVSRTTPYEPKRGLPLAVNPVC | soluble
5 | MGSDKIHHHHHHMKVCVGIIGLGRIGHRFGISPQGDPLSHSEGYAQIPNVTVVLGVDPDPEACKNFLQRFSQAQVYSSLKDVPDGLHLEVVSVCSPTHLHAQGVIAALAWRPRVILCEKPLAVNVAEAEIMLAACSAQGCILITNYSRRWTPMLQALKNLTNQDDGLGTPIGACLRYNGGLLHNGTHWIDMLLALFGSVSCTYRLEKLSVAQDDAAESIALSWNSGLTAYLIAVRGTGCSIGEGELWGTGGMLRYSAGGGQVTWQTAQPSQWSGFQELDQAKIICEAGLKGHILGAVTEAVQLAKIGGQPTCSGADGVLALQVVEMARNNKFLIK | not soluble
6 | MGSDKIHHHHHHMISEYEDIGLHNTCSEDGSFDVVLDSITNIAKYGMGIIAGVFIDMYSIIGNTDSKTIYTVRKGTLADYNARIIARSISGQVINTDPDTVVKMAEEGHMGLVGNEVQVGISYAEFAERLGIYAASCLIAARDQSFRSVLDQYQKGIEFIARNPEVSAEIISRKSNYYDEKTMKRIIGIYRHRLTTLRSDLERSISVYSAVEPSVYRLKILG | not soluble
7 | MNEDNSPSSNEGKKEKAEGPSRKSFFERLGQLFQGEPKDRQELVDVIRDSEVNDLIDHDTRDMLEGVMEISEMRVRDIMIPRSQMVTVERTDDLDTLIALITDAQHSRYPVISEDKDHVEGILLAKDLLKYLGSGSNPFDIEEVIRPAVVVPESKRVDRLLKEFREERYHMAIVVDEFGGVSGLVTIEDILEEIVGDIEDEFDESEETDIRKLSKHTFAVRALTTIEEFNETFGTNFSDEEVDTVGGMVMTAFGHLPSRGELVEIEGYNFKVTAADNRRVIQLQVTIPDEETLVEATQE | not soluble
8 | ANTAFVSSACNTQKIPSGSPFNRNLRAMLADLRQNTAFSGYDYKTSRAGSGGAPTAYGRATCKQSISQSDCTACLSNLVNRIFSICNNAIGARVQLVDCFIQYEQRSF | soluble
9 | MGFKRLLASLGAGGASVETVLTEVNVVPGGVVQGEVRIQGGSVNQAIEGLSVGLQAKVEVEGHDDQEYKQDIEFAKLSLGGAFELQAGAVHAVPFGLEIPWETPITMIDGQALRGMNIGVTTELEIARAVDSGDLDPVNVHPLPAQKAILDAFVQLGFRFKNADMERGHIRGTRQRLPFYQEIEFFPPSQYRGLNQVELSFVADDREMDVILEMDKKPGLFSEGSDSYRSFQVGLNDFQGTDWTAYLHQWLSEVGSKRSWF | not soluble
10 | GPGSMSRYSTGIENIPSLFDLASALTGFIADFTQVVFGNTQTSFTAAALEETDRGNYDPVARSWEGTGGLNYRVPLYPIPSERHTRERTRNIKILMDNCRRICVEDELPSTKEELQFWTAYRFMKYQMYLTPTCVIMPPLYVMWRMFHDRIPRPFRGRTIPVTLSLALAEQWADATYPGHQFLSTALRAKTPMGDAARAEWLRLQPIDIPYYIYAAYQFQHFFGNVPKEILFGGDIAGYCS | not soluble
11 | MGSDKIHHHHHHMAARNDDKYRGDTENKGFWTIDFGRSPVIGTAIHDGHFIRSDIASLMALSPEQRLREEDPFTGEMIARLTNRLVVHHSRFEIDLNRAADQAIYLKPEQSWGLEVWSEEPSQDAVRHSLDFHADYYAMLESVLSSVERRHGPFVVLDVHSYNHRRQGAGEPPTAQAEAPDINIGTFSMDRSRWNDVVSAVGEHFASATIGGRRLDVRENVAFQGKGEQTRFIHERFAENGCAIAIEFKKFFMDEWTGEPDRRVVSDIRETIAALQPVLEECLRSR | not soluble
12 | MNNELPDDIELLKAMLRKQQSRLRQYACQVAGYEQEIERLKAQLDRLRRMLFGQSSEKKRHKLENQIRQAEKRLSELENRLNTARNLLEDASSVTDSPDTSPPSENPIASKPESPGRKSSRKPLPAELPRETHRLLPAETSCPACGGVLKEMGETISEQLDIINTAFKVIETIRPKLACSRCDVIGTTSS | not soluble
13 | MGSDKIHHHHHHMEVEITITVRKVRIPEDVAVLEIFGQYDKRARYLKKLFNVEFAVRDSEILIKGMDEKSVDAAHRVLDEIISITRDGHLLDWTEFEYLVERVSNSESVKEVYSNNSKGLIIGKKVKPKTLGQKKYLEAVEKNDVVFVIGPAGTGKTYLAVAVALDYLKMGKVNRIILTRPAVEAGEKLGYLPGDLSEKVEPYLRPLYDAIIDITSPDKFNSYRERGIIEIVPLAYMRGRTLNNSFIILDEAQNTTYQQMKMFLTRLGFNSKAVITGDITQVDIEKEKSGLIECQKILEGISGIEFVYLNESDVVRHPLVKKIIKAYEEYERSRKS | not soluble
14 | FECGVNSLDEWLKRRALANQHSGASRTFVVADHDSRVYGYYAMAAGAVSHQAATSGVRRNMPDPVPVMVLARLAVDQRAQGIKLGAALLQDAVNRVVNVSHNVGVRALLVHALDDRAKQFYAHYGFKESPQHPM | not soluble
15 | MGSDKIHHHHHHMIVGFAGKLYKNYEKDGIELLKEVTDEALDIAGLNYADVDGIMANIGRGSFHGNRTYLNPPAQISEYFGIKPKIIEHVQYGGPSVLSMIYRAYKAIKAGDAETILCIQGGKISHLRDNHFQKTDIIDSPFDEYIKIYDQMSPISDYAMVAYRHSKLFGTTDEQRARIAVIQRYNASYNPKALFRNPITVEDVLKSRIVSYPLHLLEIVYPIDGFHVFVVSKRSSKSALRNIDILAYGEAHWPNPPAEWDDIIYTPTTESAKRASFDLNRVDAFQLYDSFTITVMLQMEDIGLVEKGKVGQFVESHDLSFKGDVPINTGGGSLNTGQPAYMSGGVILEEALLQLNDMANGHQVKGANVIFLNGIGWWSRRHSVTLVLGERK | not soluble
16 | WKTTLKLTLDNVVKLEKLKPLVEDFYREFEFAELQINMEVFNGSWEAIAQGRADIVVGATSAVPVGGDFEVKDMGVLDWAFVMSPAHPCVRQQVLTEEFVSQFPAICLDDTSNVLPKRHTGHYAKQRRLLLPNWYSAIECLKNGVGVGYMPRHIAMPLIHEGVLVEKLLQDDKPLSRCCLVWRKDDDHKLIQWMVDYLGSPNQLHQDWLQC | soluble
17 | RSFDTKQEHGISPKPTYSRIKANYFSFGYFVGRVLPYQLFDLSRIPAFKQPAPSKIGQGSVQNIVLIMGESESAAHLKLFGYGRETSPFLTRLSQADFKPIVKQS | not soluble
18 | MSLQDLATLYPQKTWSVVNQQFSADQGQLAFAHANTLLALTKECQQPIIHFWTLEKTVILGMMDTKLPELTAATDQLTAAGYHYFVRNAGGLGIVADTGILNLGFYLPEVADHLSINAAYELMKTLFSETFNTSNITIEHFEVQHSYCPGEYDLSINGQKFAGIAQRRSKNGIAILLYASIEGDQQARGTLMQHFYQAGKAQQQTRWTFPDVHPETMANLADLLHQPLTVASVSQQLSASLQSNSGLTLQSDLQTLMQEADYQTQLTKNTQLLRRYQPGYQPEGHHHHHH | soluble
19 | MTMDTAQLKSQIQQYLVESGNYELISNELKARLLQEGWVDKVKDLTKSEMNINESTNFTQILSTVEPKALEMVSDSTRETVLKQIREFLEEIVDTQ | soluble
20 | MAHHHHHHMGDKVEYGTSTVKSLGDTCRLVRALQGSTDPRLVSINSLLEGVVKSAQSLVKGTDSQKRFNMEFAEFCGVALMGLPDLEDAVDDLRVQENCANAAVNDQDDFDGISPAIFMREIIGYVVSRNTNVGAQYLEHIGRSAMAKFAGQESSEVTPKRLKSGMNDERHVQSVARKKQRTRPVAGKMGRAPTDDKSGVAATGRVFGVDGDEPKQRYKQSMPKGPPMLSRWVKPWTLLNQRVQGIILEHASNENTRRPPVCNYPPGKRSNITPFDICTAPSGPEMLNLWHARESMTSSSVGHCDPVGVAFDETALDHDSKGSEPSFFPSGDKKVCAFVSSELMANLVRYGVSSLEAPFKGAK | not soluble
21 | MFVTQQLKLMGTVIDIQIESDKACQQLSRVIDLLYTYKNRFSANDSNSELMAINQAAGVKPVSVHSDLFNLIQIGKAHSLSTPSNLNIAIGPLVQAWRIGFEDARVPSHNLISQQLALTDPRQVLIDDKKQTVFLQQVGMALDLGALAKGYITDKIMAYLIEDGIDSALINLGGNVRVHGPNPKSPDKTFRIGIQKPDAKRGQHLGVIKVNNHSVVTSGIYERQFTSKGKQYHHILDRQTGYPIETDMLSLTIMAPSSFYCDIWTTRLFGLDSSMIITLLNTFDNIEGLLVTRKHHVLMSNGLRHYFQPYYH | not soluble
22 | MGSDKIHHHHHHMFMVKITILSPEGRSCSVWSLKNEIEKLGAKCDIFLLSSPENLMSHDFKLETDLIHSRCGIGDYFDRLTLYSWQFINALEVEGCRFINPIKTLYLTSDKFKCIKLLAKNKIKTPKTALIRDYEDAVKFIEKYNLRFPVVIKNSFSKCGLKVFMARNYDELKQLTKNAIWEGKLIQEFIDFKENDLYRDMRILVVDGEVVGGYRRVSRDFRTNLYLGNVVEKLNIDEELEELALKCADLSEAVILGVDILPTKDNYYVIELNSSPGTKGFRDIGINADKKIAEALVRYAKS | not soluble
